Test results from a protein production outcome set (Wang et al. 2014).

Experiment: label from the status in PepcDB records

Sequence | protein production
MIMFNYQQTSQSCVKCGKCIPSCTIYNIHPDEVTSPRGFIDLLGAYQRGELELDKNAKDIFEKCFLCTNCTYVCPNLLPTDQVIENVRAEIAQKFGIAWFKRAYFFLLRNRWLMDWGFALGSVFTPLLFKNLPKHQSVKPRFKLPLIGERVFMWLRFKSFMESYPEETLNSDRENPRRVAIFIGCLANYNYTKIGDSLMEILKELRIDAFIPKKQQCCGAPAYFTGDFPTVDKLIKQNVTYFESFIDEVEAIIIPEATCSAMILEDWERFMHNQPEWRERIARLLPKIFIASDWLYHKTDLLKRLEALSVKMDKSITYHDPCHARKVLGVFKEPRALLGANYKIVEMSDPNQCCGFGGVTLQTEKYQYSKKVGIAKTKMIQETGAKIVSAECSACRMQLTNALDHEKIDVEFAHPLELIAEALKARG | failed
MAELEAVADDLDALIDDLDYLPGHFHLEMQLNFEPRSPAPQRARDLKLQREGLRQELQLAAAPQRPAVRHLLGAFAFYLEELDEARECFLEVAHEHPGNLNAWANLAHVYGRLGQEEEEEACAARLADLMGLAEEPEAAGDPQLRAARCLAEQGYAHGFDVGCASPEERARGLAAGIALYDKALGYGQQIPMEEKRGWYFTMATLYIRLDGIFLELGSEEQKRLPAFNRTLALLRQVLKSEDPRHRALAWCYLGMLLERKDTFSTTPMGVHDCGYSGTDPLDCFGKAIEIAKNQPPILNRLAKIFYFLGKQDMAIGTCNMALDVLRDPELNWQAYCTRAKIHIRAYLHDLKRAKMGLGGMPDRNHLACAKADLEEVVRVCPGFKAYLDIGQVYYYMGVDAVQELLAVDEAALNQALVFLAKAGESELGATLPELQLLRGKCLRIKGEDANAAACFKRAVELDDAGSSHTDGFGCLLEALLAQWSQAQLSDGELGREVDAWLRRAQDKYPAARLRQELQRVWRGHTDEVLGLARALVAQGRPALVRLLFETMEREGEGASAPRDRRAVSF | failed
MSLKIKNILLSGGSGKRLWPLSRSLYPKQFLKLFDHKSLFELSFKRNASLVDETLIVCNEKHYFLALEEIKNEIKNKSVGFLLESLSKNTANAIALSALMSDKEDLLIVTPSDHLIKDLQAYENAIKKAIDLAQKGFLVTFGVSIDKPNTEFGYIESPNGLDVKRFIEKPSLDKAIEFQKSGGFYFNSGMFVFQAGVFLDELKKHAPTILKGCERAFESLENAYFFEKKIARLSEKSMQDLEDMSIDIALMQQSHKIKMVELNAKWSDLGNFNALFEEAANEPKENVSLNQTPVFAKESEEGHHHHHH | not failed
MESITVTELKEKILDANPVNIVDVRTDQETAMGIIPGAETIPMNSIPDNLNYFNDNETYYIICKAGGRSAQVVQYLEQNGVNAVNVEGGMDEFGDEGLDIKSILEHHHHHH | not failed
MTAPTLSRAAMEKVIRTYYDGCNEADEAKMIACFVPEAVHYFPAGMYGGAFRGAAQIAHRWRTAVETLGSYWTIDALVIDAETAEAAIEWTHFKTNQDKVLRGAECVEFDRASGLIREIRAFYASPQAEGIARLELGDFDYAGRGYRVTSPRKPA | not failed
MKFFGFYRPIALIAGITVSASILTSVATAAESPTSFQAITPAFSSSSAPEADAEANTSEATADLLYVAENQLLIKLSNAVVEDVNGEILMKDNKGTLLENLTAELQAQPGFSIEKVDSHTALLTMNPDEVPDLQDWRCGVGALSGGVAGVVATGLALAALGVATGGTGFAVLAAGGLAGYGTGAVANC | failed
MEEKQPQKTKEPSKEDEPQQKEMPTHLSLGAESKAEAKTPVLVETQTVDNANEKSEKPPENQKKLSDKDTVATKIKAWWRGTLVRRALLHAALSACIIQCWWRLILSKILKKRRQAALEAFSRKEWAAVTLQSQARMWRIRRRYCQVLNAVRIIQAYWRCRSCASRGFIKGQYRVTANQLHLQLEILLDSGPCIVTECIPFSIKE | failed
MATPFWYNAALKVLKPVYRWRIKKRAENEMRYQQECRERFGPFQQPQNRHALWFHAVSVGETNAAQPLIEYYLKLGHPVLVTNTTKTGQARAKSLFLKSPYLELFQAVYLPVDQIFLLKQFFELYQPKLLALVETELWPNLIDQAQHYGVPTFLINARLSEKSAQGYARVSALSNAMLSRLTGLLAQDQSTQQRFIGLGLAREKAQVVGNIKFDIDVPLLFVEQARRLQQQWQLAGRKIMVLASTHAPEEQQLLTALKTHLMADPDLLCIVVPRHPERFDEVFQICQNLQLDTARRSLEQPIQPETQVYLADSMGELWLWYALAQTAFVGGSLNEPGGGHNILEPMALKIPVVIGPRYFNFQTIVDEFRETEAIDIVQDATQAVRQLLHYVSTPNSADQIVDHAQSILQRNKGSLARHIHVLDQYLS | failed
MAARLLFRRSSQILRSIQRNPQISSSFESPPCPIFHSLTTASPDPSRLSSLTFLRSLSIARRGPTRPKKIDIGAKARQMQNRRLWTYALTFSCIAGFVVIVLNQFQDQLVFYLTPSDAMEKFAENPTKNKFRLGGLVLEGSVAQPAASQEMEFVITDLITDILVRYKGSLPDLFREGHSVVVEGFIKPYTDEVRKEVSTKPISKKARNLDCFFSATEVLAKHDEKYMPQEVAAAIEKNKKIIEAAATEQAAEVAAS | failed
MNFPISTIRIGGWVVVAKNPDDIVAKFYFAKKKLIWEFLFGEPETNTLRLKRKIEIQWNDVSSFEESISSRDETGILKIELKKRPTFFIETNPQAGKHTQWKQLDHDFTGDHASNYRRHTLHFPPGVLQKNLEKLVTDSFWSKLYEVPFPVHESRYFDSGFENNSSRNSHSHTVGFNVNNGPQHHFSQGIGGVGVGEGNFSMANGGWQRNSYSPVNSLNYNTANEFFGMQATPPSSQVVNEHYNTQNDFTGSQFGYHMNQDEIQKILESQAYAVPDTQTKLMSSAMNNVPKYPQAGSCLESMLFWYEHRRRFQQ | failed
MTQTVKLDILSDPICPWCYIGKTQLDKALAAIPDHPFVIEWHPFQLNPDMAPEGMDRREYLERKFGGKEGAVRAYAPVVEHAEKAGLAIDFEAMQRTPNTLDAHRLIHWAGVEGKQTEAVDALFAAYFTEGRDIGDAEVLADIADSIGMDAAVVLKLLKSDADRDDIAKRDSHSREMGVSSVPTFIVANQHAVPGAQPPELWEQVIREIMSQIETTSA | not failed
MHIKSAIIVVSDRISTGTRENKALPLLQRLMSDELQDYSYELISEVVVPEGYDTVVEAIATALKQGARFIITAGGTGIRAKNQTPEATASFIHTRCEGLEQQILIHGSTHTHLAGLSRGIVGVTGRDDHAALIVNAPSSSGGITDTWAVISPVIPNIFEGLDAS | not failed
MAQQNAEHIADWRGQSGERWAAYQARLDAMMAPFGQAAIEAAAPTTGERVLDVGCGAGASSRDLAARVGAEGHVLGVDISEPLIERARALAPQDMSVVFRVTDASRAELPDGAFDILFSRFGVMFFNDPTGAFAHMRRALKPGGRAAFVCWRGVTENDWMRLPMGAMKGILPSMTPPGPEAPGPFSFGDQERVERILTKAGFTDIAIEPFDASVSFGEGATRDAALDDAVNMTLEVGPLSRVLADQPDDIRDRASVAVRAALSGCPGERSVMINGATWIVTARNPAS | failed
MHSREYPFMLASMMFDFACLQISSLWERLLGAIGDAAGNALGRVVEAIRTLFEGDPETRRKVSFSVAIIALSAKMAKADGVVNDAEVRAFRQIFDFPDEEAKNVARLYNLARQDVAGYEAYAERLAGLCGSGHANCEMLESVIDGLFHIAKADGLIHERELAFLGRIAEIFRITEDHFETIMARHVHMDGRDPYRVLGVSPSDDFLDIRKRYRSLVAEHHPDKLIARGVPMELHAAANERMAALNAAYAAIEKERRVA | failed
MTRSSNIPADATPNPHATAEQVAAARHDSKLAQVLYHDWEAENYDEKWSISYDQRCVDYARGRFDAIVPDEVIAQLPYDRALELGCGTGFFLLNLIQAGVARRGSVTDLSPGMVKVATRNGQALGLDIDGRVADAEGIPYDDDAFDLVVGHAVLHHIPDVELSLREVVRVLKPGGRFVFAGEPTTVGDGYARTLSTLTWRVVTNATKLPGLRGWRRPQGELDESSRAAALEALVDLHTFTPQDLQRIAHNAGAVEVQTATEEFTAAMLGWPLRTFECTVPPGRLGWGWARFAFTSWKTLGWVDANVWRHVVPKGWFYNVMITGVKPS | failed
MVRKGQMIIGAFACLIASMSWGAMFPVADHALEYIDPFYFSLIRYGAVAIMLIVLLLMKEGKQAFRLEGRGRLLVFFGTMAFTVYNVLIFLGQMLMGKSGVMVASIMEALMPMISICILWGYKRVKPKKYMITSMIIAFIGAVFVITKGDVSFFLTLKDNMFSLACIFVGVVGWVIYTMGGQTCSDWSTLRYSTLTCVFGTTVTGIITVLITSLGYVSVPSMGTISVVKYDLLFMMTLPGIVALLAWNYGVKILSSINGILFINFVPITTLVIMMMQGYQITMFDIVGTLFVIAALIRNNVCQRKEENINKKMLQEEQLRQAV | failed
MRIVGLTGGIASGKSTVSNLFKASGIPVVDADVVARDVLKKGSGGWKRVVAAFGEEILLPSGEVDRPKLGQIVFSSDSKRQLLNKLMAPYISSGIFWEILKQWASGAKVIVVDIPLLFEVKMDKWTKPIVVVWVSQETQLKRLMERDGLSEEDARNRVMAQMPLDSKRSKADVVIDNNGSLDDLHQQFEKVLIEIRRPLTWIEFWRSRQGAFSVLGSVILGLSVCKQLKIGS | failed
MVWGKGLARRLYGLTGVVWSKYLDIDERGRLIVKLKGYKIDIAKLVSDKQLPGAHIRILPIIRYMMDQVYEAFMEAFRKFGYKGAFKPVYPLKSNSTPIVVDTIWRYGIKYSWGFNAGTYPEVKLISKYINEKPRLLVVDGIKDNKLLDLLSKMCDSWEIIVDIESMRDADLLSKYQDLNIGLRVKVTSKSSGLWSHSSGLDSKFGLLINTLDEMVEKHPWVPNRTVLLHVHAGSQITDKNRLEDIIRETIILYNNLVKTGFKNIRYIDFGGGLAYPYIEASNHVFSANYSLNEYAEILVKELVKSAENTPDIVFEGGRYIVAPHRITVTKIIDTRPYSTSDRGETSYPIVEEIKNTENIKELVYVSRKAREVITRLMLKFPINIESRRILEKLLTSINEAITSKAYEIIHRDNDKALEELIKTPNYVLEELVSPTRRFFASFSLFSHLPDTIIADQYFKIIPLQRLNEKPEVLGVISDLTCDSMGEYSSFITFLPNNIEYETEDLFTSLDHKLMFIPGKTLRLKGVPLHIPRKNEDYYIAFLDTGAYQDMLSMNHNLLNGYPEIIIDIINDNLKIIYENLESAENYPL | failed
MAKKTSSLLSRRRTRRPGEPPLDLGSIPWLGYALDFGKDAASFLTRMKEKHGDIFTILVGGRYVTVLLDPHSYDAVVWEPRTRLDFHAYAIFLMERIFDVQLPHYSPSDEKARMKLTLLHRELQALTEAMYTNLHAVLLGDATEAGSGWHEMGLLDFSYSFLLRAGYLTLYGIEALPRTHESQAQDRVHSADVFHTFRQLDRLLPKLARGSLSVGDKDHMCSVKSRLWKLLSPARLARRAHRSKWLESYLLHLEEMGVSEEMQARALVLQLWATQGNMGPAAFWLLLFLLKNPEALAAVRGELESILWQAEQPVSQTTTLPQKVLDSTPVLDSVLSESLRLTAAPFITREVVVDLAMPMADGREFNLRRGDRLLLFPFLSPQRDPEIYTDPEVFKYNRFLNPDGSEKKDFYKDGKRLKNYNMPWGAGHNHCLGRSYAVNSIKQFVFLVLVHLDLELINADVEIPEFDLSRYGFGLMQPEHDVPVRYRIRPHHHH | not failed
LDRAYLRVENQRYRDKLEAANRELQASLNLLQEDQNAGRQVQMNMLPVTPWSIEGLEFSHRIIPSLYLSGDFVDYFRVDERRVAFYLADVSGHGASSAFVTVLLKFMTTRLLYESRRNGTLPEFKPSEVLAHINRGLINTKLGKHVTMLGGVIDLEKNSLTYSIGGHLPLPVLFVEGQAGYLEGRGLPVGLFDDATYDDRVMELPPSFSLSLFSDGILDVLPGATLKEKEASLPEQVAAAGGTLDGLRQVFGLANLAEMPDDIALLVLSRNLA | failed
MYENKIVPLQMDRRKYLQSCVENMSITFVLFGTINIFFNLLINLINIGRINYEHFFKLFSITSGLWIVIILVQITSYLFSSGFFENLATIFLHDNERNKGDIWNIKSIGMFLINIITLGWLSIFSFYGIFSYIINSFDLINNFMLSTTILNFSVNLLFVLNQFLYFLFKVHEIRNIEFHNCLIHFLPGFSRMLESIVLTVKSKIMDNLSKNKNFVKAKNKKRFIDHNSYPYGDQ | failed
